Results on 1 molecule are retold here after paper PMC4284802, “The tumour suppressor DLC2 ensures mitotic fidelity by coordinating spindle positioning and cell–cell adhesion” (Nature Communications, 2014).

For this assay, the target named is T1, His-tagged recombinant protein containing the forkhead-associated (FHA) domain of Kif1B (residues 367-999) (human, UniProt O60333-2 367-999).
T1 construct: cloned into pRSET-A; Vector pRSET-A; also called Kif1B FHA domain; His-Kif1B; source: E. coli BL21pLysS, purified
T1 sequence (looked up): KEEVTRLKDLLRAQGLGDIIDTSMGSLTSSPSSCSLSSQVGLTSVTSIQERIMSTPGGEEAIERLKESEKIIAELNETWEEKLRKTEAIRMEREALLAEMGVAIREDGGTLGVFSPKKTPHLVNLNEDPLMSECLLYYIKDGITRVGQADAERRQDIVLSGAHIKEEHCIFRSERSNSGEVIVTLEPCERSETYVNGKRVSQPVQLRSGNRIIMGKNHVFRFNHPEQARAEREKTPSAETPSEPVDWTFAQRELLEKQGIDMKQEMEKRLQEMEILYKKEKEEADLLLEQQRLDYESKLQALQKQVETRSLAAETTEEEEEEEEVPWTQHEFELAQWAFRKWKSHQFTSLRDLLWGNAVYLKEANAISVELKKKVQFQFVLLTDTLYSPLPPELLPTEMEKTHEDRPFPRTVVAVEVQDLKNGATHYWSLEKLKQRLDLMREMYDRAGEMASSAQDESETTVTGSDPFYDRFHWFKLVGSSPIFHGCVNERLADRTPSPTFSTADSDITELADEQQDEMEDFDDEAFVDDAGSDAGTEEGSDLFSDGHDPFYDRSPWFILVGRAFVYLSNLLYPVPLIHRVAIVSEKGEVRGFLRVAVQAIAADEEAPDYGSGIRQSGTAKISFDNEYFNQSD
As to the kind of experiment: pull-down; purified GST-SAM domain on glutathione-agarose beads incubated 2 h with recombinant His-tagged Kif1B fusion proteins; immunoblot with anti-GST and anti-His. The conditions noted are these: both partners purified. Background: In western blotting, separated proteins are transferred to a membrane and probed.

B1: DLC2 SAM domain (residues 1-130) fused to GST (domain or fragment, human, UniProt Q9Y3M8-1 1-130, looked up)
chain: MFSQVPRTPASGCYYLNSMTPEGQEMYLRFDQTTRRSPYRMSRILARHQLVTKIQQEIEAKEACDWLRAAGFPQYAQLYEDSQFPINIVAVKNDHDFLEKDLVEPLCRRLNTLNKCASMKLDVNFQRKKG
notes: cloned into pGEX4T3; Vector pGEX4T3; also called SAM domain construct; GST-fusion protein containing the SAM domain; source: E. coli BL21pLysS, purified (glutathione-agarose)
As for B1, the binding result is recorded as “binds”.
